Here are results for three molecules from US20030224458A1 (published 2003).

Ends that are not written are not given here.

B1: Peptide modulator of HGPRBMY23 SRVSGAKVWFLSNWS (peptide)
peptide: SRVSGAKVWFLSNWS
modifications: also: synthetic versions N-acetylated, C-terminal amide, also phage-displayed
notes: Synthetic versions are described as N-acetylated peptides made on Knorr amide resin (C-terminal amide)
B2: Peptide modulator of HGPRBMY23 LFASSDWSSFPVLVF (peptide)
peptide: LFASSDWSSFPVLVF
modifications: also: synthetic versions N-acetylated, C-terminal amide, also phage-displayed
notes: as for B1
B3: Peptide modulator of HGPRBMY23 FVGTFDWQSYPLLSF (peptide)
peptide: FVGTFDWQSYPLLSF
modifications: not fully specified (N-terminus, C-terminus)
notes: as for B1

The target of this assay is T1, HGPRBMY23 polypeptide (novel human G-protein coupled receptor) (human, UniProt Q96P68 1-337).
T1 construct: For phage panning it was expressed on CHO-K1 cells from the pcDNA3.1 Hygro-HGPRBMY23 construct; For immunohistochemistry it was the native protein in paraffin-embedded, formalin-fixed tissue sections; also called GPCR92
T1 sequence (Q96P68 whole entry): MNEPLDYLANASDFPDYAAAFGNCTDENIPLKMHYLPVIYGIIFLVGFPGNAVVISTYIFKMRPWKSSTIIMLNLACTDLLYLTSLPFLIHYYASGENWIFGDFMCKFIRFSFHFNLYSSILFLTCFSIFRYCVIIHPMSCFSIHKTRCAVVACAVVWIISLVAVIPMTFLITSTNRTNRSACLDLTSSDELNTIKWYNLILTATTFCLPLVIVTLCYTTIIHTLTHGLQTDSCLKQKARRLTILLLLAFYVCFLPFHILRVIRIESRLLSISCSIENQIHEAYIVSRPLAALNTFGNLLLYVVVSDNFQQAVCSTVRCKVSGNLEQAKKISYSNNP
In words: phage display panning on CHO-K1 cells transfected with HGPRBMY23, after preadsorption on integrin and parental cells. The procedure: Typically, this corresponded to one P175 flask with near-confluent growth. A similar number of parental cells were grown for preadsorption. One day prior to panning, two or three 96-well Immulon plates were coated integrin. Plates were coated overnight at 4° C. in NaHCO₃, pH 9.5, with ˜50 ng of αVβ3 integrin (Chemicon; Cat. #CC1020) per well per library.
On the day of panning, growth medium was discarded and cells were washed with 10 ml PBS by allowing the buffer to flow over the cells. The PBS was removed and 10 ml Tris-EDTA detaching buffer (Gibco Cat. #13150-016; no trypsin) was added for 2 min. Plates were tapped and/or pipetted up and down to detach cells. This was done quickly to minimize the exposure of the cells to this reagent. Cells were pelleted by centrifugation at 3K, and then washed with 20 ml PBS. Cells were resuspended cells in PBS with 2% milk blocking agent plus protease inhibitor (EDTA-free; Roche Cat. #1 873 580). For each library, cell suspensions of ˜500 ul were used. Cells were blocked for 30-60 min with gentle rocking at room temperature. The integrin-coated wells were washed 3× in PBST, then blocked with 2% BSA in PBS for 30 min or more. To preadsorb against integrin, input phage was added to the integrin-coated wells, and incubated for 30 min or more.
At this stage, the blocked parental cells were divided into the required number of aliquots (500 ul aliquot/library). The phage supernatants were added from the integrin-preadsorption step. Preadsorption against the parental cells was carried out for 30 min or more with gentle rocking. The blocked transfected cells were divided into the required number of aliquots (500 ul aliquot per library). The transfected cells were pelleted, and the supernatant was discarded. The phage supernatants from the two preadsorption steps were added, and cells were incubated with gentle rocking for 2 h or more. Cells were washed 6-8×with PBST at 5 min intervals. Each wash was performed by gently pipetting the cells up and down, and cells were centrifuged at low speed. […]
Consider B1, for which the binding result is “binds”. Turning to B2, the binding result was “binds”. For B3, the binding result is recorded as “binds”.
